The record followed here is publication PMC5611513, “Structure-Based Prototype Peptides Targeting the Pseudomonas aeruginosa Type VI Secretion System Effector as a Novel Antibacterial Strategy” (Frontiers in Cellular and Infection Microbiology, 2017).

Common to all, as to experiment: ITC
Assay [1] concerns the target TplEi (Pseudomonas aeruginosa) (UniProt Q9I3K3).
For assay [2], the target named is TplEi E219A (Pseudomonas aeruginosa) (UniProt Q9I3K3).
Assay [3] deals with TplEi R266A (Pseudomonas aeruginosa) (UniProt Q9I3K3).
In assay [4] the target is TplEi S215A (Pseudomonas aeruginosa) (UniProt Q9I3K3).

For ““L” peptide W92A (from UniProt Q9I3K2 82-115)”, in assay [1], the fold reduction in binding affinity against the wild-type peptide came to 500 fold.

One may read the Kd as the constant that tells how readily two partners part at equilibrium. Low readings indicate higher affinity, high ones lower affinity. Turning to “A peptides (“L” peptide, TplE 82-108 plus EQVEVDD) (from UniProt Q9I3K2 82-115)”, the figures for the dissociation constant (Kd) in assay [2], in assay [3] and in assay [4] were 35.5 µM, 46.9 µM and 7.8 µM, respectively.
